The text below walks through data of article PMC6033261 (Methods in molecular biology (Clifton, N.J.), 2015).

For orientation: Kd means the free concentration of one partner at which half of the binding sites on the other are occupied at equilibrium, for simple one-to-one binding.

In the assay the target is His-Rab7 (UniProt P51149 1-207). Put plainly: bead-based flow cytometry.
Chain of His-Rab7 (P51149 whole entry): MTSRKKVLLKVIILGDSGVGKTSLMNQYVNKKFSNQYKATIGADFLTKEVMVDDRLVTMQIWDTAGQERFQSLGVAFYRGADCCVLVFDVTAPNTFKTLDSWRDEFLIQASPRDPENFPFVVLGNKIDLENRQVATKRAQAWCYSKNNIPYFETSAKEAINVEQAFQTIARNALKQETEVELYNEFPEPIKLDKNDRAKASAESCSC

B1: GST-RILP (Rab binding domain of RILP only) (domain or fragment, UniProt Q96NA2 240-316, looked up)
chain: QCRFSREEFEQILQERNELKAKVFLLKEELAYFQRELLTDHRVPGLLLEAMKVAVRKQRKKIKAKMLGTPEEAESSE
Take B1: the Kd was 1870 ± 250 nM.
